Molecular target: T1, amyloid-beta peptide (1-40), freshly prepared synthetic (UniProt P05067 672-711, 125I label when used as tracer; residue not stated)
T1 construct: domain: amyloid-beta peptide (1-40)
Assay: radioligand binding to coated microtiter wells

B1: TrcHis-chloramphenicol acetyltransferase (CAT) fusion protein (other)
chain: MEKKITGYTTVDISQWHRKEHFEAFQSVAQCTYNQTVQLDITAFLKTVKKNKHKFYPAFIHILARLMNAHPEFRMAMKDGELVIWDSVHPCYTVFHEQTETFSSLWSEYHDDFRQFLHIYSQDVACYGENLAYFPKGFIENMFFVSANPWVSFTSFDLNVANMDNFFAPVFTMGKYYTQGDKVLMPLAIQVHHAVCDGFHVGRMLNELQQYCDEWQGGA
notes: also called TrcHis-CAT; not shown: N-terminal TrcHis leader of the Invitrogen control construct
B1: no binding (tested: 100 nM).

— patent US6994974 (TRUSTEES OF COLUMBIA UNIVERSITY IN THE CITY OF NEW YORK, dated 2006)
